System: CD8+ T-cells of healthy HLA-A*02 donors
Assay: In vitro immunogenicity: T-cell priming with aAPCs loaded with peptide/MHC and anti-CD28, multimer staining
Type: cell-based, human
Conditions: HLA-A*02 restricted peptides, among evaluable wells, Table 10B
Text: In order to obtain information regarding the immunogenicity of the TUMAPs of the present invention, the inventors performed investigations using an in vitro T-cell priming assay based on repeated stimulations of CD8+ T-cells with artificial antigen presenting cells (aAPCs) loaded with peptide/MHC complexes and anti-CD28 antibody.
In order to perform in vitro stimulations by artificial antigen presenting cells loaded with peptide-MHC complex (pMHC) and anti-CD28 antibody, the inventors first isolated CD8+ T-cells from fresh HLA-A*02 leukapheresis products via positive selection using CD8 microbeads (Miltenyi Biotec, Bergisch-Gladbach, Germany) of healthy donors obtained from the University clinics Mannheim, Germany, after informed consent.
PBMCs and isolated CD8+ lymphocytes were incubated in T-cell medium (TCM) until use consisting of RPMI-Glutamax (Invitrogen, Karlsruhe, Germany) supplemented with 10% heat inactivated human AB serum (PAN-Biotech, Aidenbach, Germany), 100 U/ml Penicillin/100 μg/ml Streptomycin (Cambrex, Cologne, Germany), 1 mM sodium pyruvate (CC Pro, Oberdorla, Germany), 20 μg/ml Gentamycin (Cambrex). 2.5 ng/ml IL-7 (PromoCell, Heidelberg, Germany) and 10 U/ml IL-2 (Novartis Pharma, Nürnberg, Germany) were also added to the TCM at this step.
Generation of pMHC/anti-CD28 coated beads, T-cell stimulations and readout was performed in a highly defined in vitro system using four different pMHC molecules per stimulation condition and 8 different pMHC molecules per readout condition.
The purified co-stimulatory mouse IgG2a anti human CD28 Ab 9.3 (Jung et al., 1987) was chemically biotinylated using Sulfo-N-hydroxysuccinimidobiotin as recommended by the manufacturer (Perbio, Bonn, Germany). Beads used were 5.6 μm diameter streptavidin coated polystyrene particles (Bangs Laboratories, Illinois, USA).
800.000 beads/200 μl were coated in 96-well plates in the presence of 4×12.5 ng different biotin-pMHC, washed and 600 ng biotin anti-CD28 were added subsequently in a volume of 200 μl. Stimulations were initiated in 96-well plates by co-incubating 1×10^6 CD8+ T-cells with 2×10^6 washed coated beads in 200 μl TCM supplemented with 5 ng/ml IL-12 (PromoCell) for 3 days at 37° C. Half of the medium was then exchanged by fresh TCM supplemented with 80 U/ml IL-2 and incubating was continued for 4 days at 37° C. This stimulation cycle was performed for a total of three times. For the pMHC multimer readout using 8 different pMHC molecules per condition, a two-dimensional combinatorial coding approach was used as previously described (Andersen et al., 2012) with minor modifications encompassing coupling to 5 different fluorochromes. Finally, multimeric analyses were performed by staining the cells with Live/dead near IR dye (Invitrogen, Karlsruhe, Germany), CD8-FITC antibody clone SK1 (BD, Heidelberg, Germany) and fluorescent pMHC multimers. For analysis, a BD LSRII SORP cytometer equipped with appropriate lasers and filters was used. Peptide specific cells were calculated as percentage of total CD8+ cells. Evaluation of multimeric analysis was done using the FlowJo software (Tree Star, Oregon, USA). In vitro priming of specific multimer+CD8+ lymphocytes was detected by comparing to negative control stimulations.

Row | Substance | Wells positive [%]
1 | 1 (ALIKQLFEA; listed as Homo sapiens) [compound 1] | “+” (<20% = +)
2 | 2 (ALLPRYFFL; listed as Homo sapiens) [compound 2] | “++++” (>=70% = ++++)
3 | 7 (YLTRHLAVL; listed as Homo sapiens) [compound 7] | “+” (<20% = +)

Same assay, conditions: percentage of positive donors, in vitro immunogenicity, Table 10A

Row | Substance | donors
4 | 219 (FLDEKGRCV; listed as Homo sapiens) [compound 219] | +++ (50%-69% = +++)
5 | 220 (KMDPVAYRV; listed as Homo sapiens) [compound 220] | ++++ (>=70% = ++++)

Same assay, conditions: percentage of positive wells, in vitro immunogenicity, Table 10A

Row | Substance | wells
6 | 219 (FLDEKGRCV; listed as Homo sapiens) [compound 219] | ++ (20%-49% = ++)
7 | 220 (KMDPVAYRV; listed as Homo sapiens) [compound 220] | +++ (50%-69% = +++)

Biological target: HLA-A*02:01 (Homo sapiens, UniProt P04439, D140Y/D185E/D98H/E176V/E277Q/G131W/G231S/I119V/I121R/I166T/I218V/L300P/L318F/N151K/N90K/P208A/P217A/Q86G/Q94H/R138H/R169H/T345S)
Assay: MHC binding assay (UV-ligand exchange, beta2m ELISA, peptide exchange yield)
Conditions: binding to HLA-A*02:01, β2m ELISA
Text: Candidate peptides for T cell based therapies according to the present invention were further tested for their MHC binding capacity (affinity). The individual peptide-MHC complexes were produced by UV-ligand exchange, where a UV-sensitive peptide is cleaved upon UV-irradiation, and exchanged with the peptide of interest as analyzed. Only peptide candidates that can effectively bind and stabilize the peptide-receptive MHC molecules prevent dissociation of the MHC complexes. To determine the yield of the exchange reaction, an ELISA was performed based on the detection of the light chain (β2m) of stabilized MHC complexes. The assay was performed as generally described in Rodenko et al. (Rodenko et al., 2006).
96 well MAXISorp plates (NUNC) were coated over night with 2 ug/ml streptavidin in PBS at room temperature, washed 4× and blocked for 1 h at 37° C. in 2% BSA containing blocking buffer. Refolded HLA-A*02:01/MLA-001 monomers served as standards, covering the range of 15-500 ng/ml. Peptide-MHC monomers of the UV-exchange reaction were diluted 100 fold in blocking buffer. Samples were incubated for 1 h at 37° C., washed four times, incubated with 2 ug/ml HRP conjugated anti-β2m for 1 h at 37° C., washed again and detected with TMB solution that is stopped with […]. Absorption was measured at 450 nm. Candidate peptides that show a high exchange yield (preferably higher than 50%, most preferred higher than 75%) are generally preferred for a generation and production of antibodies or fragments thereof, and/or T cell receptors or fragments thereof, as they show sufficient avidity to the MHC molecules and prevent dissociation of the MHC complexes.

Row | Substance | Peptide exchange (MHC class I binding score, peptide exchange yield)
8 | 1 (ALIKQLFEA; listed as Homo sapiens) [compound 1] | “+++” (≥50 = +++)
9 | 2 (ALLPRYFFL; listed as Homo sapiens) [compound 2] | “++” (≥20% = ++)
10 | 7 (YLTRHLAVL; listed as Homo sapiens) [compound 7] | “++” (≥20% = ++)
11 | 152 (KLLAVIHEL; listed as Homo sapiens) [compound 152] | “++” (≥20% = ++)
12 | 153 (ILFSEDSTKLFV; listed as Homo sapiens) [compound 153] | “+++” (≥50 = +++)
13 | 154 (KLPSETIFVGC; listed as Homo sapiens) [compound 154] | “+++” (≥50 = +++)
14 | 155 (RLLGEEVVRV; listed as Homo sapiens) [compound 155] | “+++” (≥50 = +++)
15 | 156 (SLMMTIINL; listed as Homo sapiens) [compound 156] | “++++” (≥75% = ++++)
16 | 157 (SLIERDLKL; listed as Homo sapiens) [compound 157] | “+++” (≥50 = +++)
17 | 158 (GLLDPSVFHV; listed as Homo sapiens) [compound 158] | “+++” (≥50 = +++)
18 | 159 (VLVDDDGIKVV; listed as Homo sapiens) [compound 159] | “++” (≥20% = ++)
19 | 160 (KLLEFDQLQL; listed as Homo sapiens) [compound 160] | “+++” (≥50 = +++)
20 | 161 (FLKNELDNV; listed as Homo sapiens) [compound 161] | “+++” (≥50 = +++)
21 | 162 (KLMDYIDEL; listed as Homo sapiens) [compound 162] | “+++” (≥50 = +++)
22 | 163 (RLLHEVQEL; listed as Homo sapiens) [compound 163] | “+++” (≥50 = +++)
23 | 164 (KMLDEILLQL; listed as Homo sapiens) [compound 164] | “++++” (≥75% = ++++)
24 | 165 (RLLDFPEAMVL; listed as Homo sapiens) [compound 165] | “++++” (≥75% = ++++)
25 | 166 (GLLEARGILGL; listed as Homo sapiens) [compound 166] | “+++” (≥50 = +++)
26 | 167 (SVIDHIHLISV; listed as Homo sapiens) [compound 167] | “+++” (≥50 = +++)
27 | 168 (GLIRFPLMTI; listed as Homo sapiens) [compound 168] | “+++” (≥50 = +++)
28 | 169 (YLAHFIEGL; listed as Homo sapiens) [compound 169] | “+++” (≥50 = +++)

Row | Substance | Peptide exchange (MHC class I binding score, peptide exchange yield)
29 | 170 (ALAGGITMV; listed as Homo sapiens) [compound 170] | “+++” (≥50 = +++)
30 | 171 (RLQETEGMVAV; listed as Homo sapiens) [compound 171] | “++” (≥20% = ++)
31 | 172 (LLLDTVTMQV; listed as Homo sapiens) [compound 172] | “+++” (≥50 = +++)
32 | 173 (KLGDLMVLL; listed as Homo sapiens) [compound 173] | “+++” (≥50 = +++)
33 | 174 (ILLDDNMQIRL; listed as Homo sapiens) [compound 174] | “++++” (≥75% = ++++)
34 | 175 (TLLGGKEAQALGV; listed as Homo sapiens) [compound 175] | “+++” (≥50 = +++)
35 | 176 (RTLDKVLEV; listed as Homo sapiens) [compound 176] | “++” (≥20% = ++)
36 | 177 (ALLQGAIESV; listed as Homo sapiens) [compound 177] | “+++” (≥50 = +++)
37 | 178 (YLFREPATI; listed as Homo sapiens) [compound 178] | “++” (≥20% = ++)
38 | 179 (RLLSPLSSA; listed as Homo sapiens) [compound 179] | “+++” (≥50 = +++)
39 | 181 (NLFDLGGQYLRV; listed as Homo sapiens) [compound 181] | “+++” (≥50 = +++)
40 | 182 (SLNKWIFTV; listed as Homo sapiens) [compound 182] | “++++” (≥75% = ++++)
41 | 183 (TLQEVVTGV; listed as Homo sapiens) [compound 183] | “+++” (≥50 = +++)
42 | 184 (SLLDENNVSSYL; listed as Homo sapiens) [compound 184] | “+++” (≥50 = +++)
43 | 185 (VLYTGVVRV; listed as Homo sapiens) [compound 185] | “+++” (≥50 = +++)
44 | 186 (KMSEKILLL; listed as Homo sapiens) [compound 186] | “+++” (≥50 = +++)
45 | 187 (GLHNVVYGI; listed as Homo sapiens) [compound 187] | “+++” (≥50 = +++)
46 | 188 (FLVDGPRVQL; listed as Homo sapiens) [compound 188] | “+++” (≥50 = +++)
47 | 189 (AISEVIGKITA; listed as Homo sapiens) [compound 189] | “+++” (≥50 = +++)
48 | 190 (AMAEMVLQV; listed as Homo sapiens) [compound 190] | “+++” (≥50 = +++)
49 | 191 (QLFSEIHNL; listed as Homo sapiens) [compound 191] | “++++” (≥75% = ++++)

— patent publication US11597752B2, “Peptides and combination of peptides and scaffolds thereof for use in immunotherapy against colorectal carcinoma (CRC) and other cancers” (priority 2015, dated 2023)
